B1: Cryptdin 3 (peptide)
peptide: LRDLVCYCRKRGCKRRERMNGTCRKGHLMYTLCCR

How the values were obtained:
[1] = biological target: mouse adenovirus 2 (MAdV-2), wild type virus particle (mouse adenovirus 2)
[2] = biological target: MAdV-2.IXeGFP virus particle (replication competent MAdV-2 with enhanced green fluorescent protein fused to minor capsid protein IX) (mouse adenovirus 2 | not stated)
[3] = biological target: MAdV-2.IXeGFP virus particle (replication competent MAdV-2 with enhanced green fluorescent protein fused to minor capsid protein IX) (mouse adenovirus 2 | not stated); remark: listed apart in the source

| Molecule | infection of CMT-93 cells by MAdV-2 pre-incubated with cryptdin 2 (dose-responsive over the indicated concentrations), relative to infection without defensin [1] | infection of CMT-93 cells by MAdV-2.IXeGFP pre-incubated with cryptdin 2 (dose-responsive over the indicated concentrations), relative to infection without defensin [2] | infection of CMT-93 cells by MAdV-2.IXeGFP pre-incubated with cryptdin 3 (indicated concentrations), relative to infection without defensin [3] |
| --- | --- | --- | --- |
| Cryptdin 2 (peptide) | 1.8 fold | 2.4 fold |  |
| B1 |  |  | 1.7 fold |
